# From US10471162B2, “Collagen targeted imaging probes” (priority 2014, dated 2019)
# Tested on: pulmonary fibrosis, C57/BL6 mice (bleomycin or sham)
# Conditions: mouse, in vivo
# Procedure: Pulmonary fibrosis was induced in 7-8-week-old male C57/BL6 mice by transtracheal administration of bleomycin (BM; 2.5 U/kg) in 50 μL of PBS under direct vision using a small cervical incision. Sham animals received only PBS. Animals were placed in a small-animal PET/SPECT/CT scanner (Triumph; TriFoil Imaging), equipped with inhalation anesthesia and heating pad. Each animal was anesthetized with isoflurane (4% for induction, 1-1.5% for maintenance in medical air). After placement of an in-dwelling catheter in the femoral vein for probe administration, mice were positioned in the PET-CT and the probe was given as a bolus as the PET acquisition began. Mice were imaged continuously by PET for 120 minutes. […] Instrument calibration was performed with phantoms containing small known amounts of radioactivity. […] Reconstructed PET/CT data were quantitatively evaluated using AMIDE software package (Loening and Gambhir, 2003). […] The radioactivity concentration within organs was obtained from mean pixel values within the VOI volume and converted to counts per milliliter per minute and then divided by the injected dose (ID) to obtain an imaging VOI-derived percentage of the injected radioactive dose per cubic centimeter of tissue (% ID/cc). […] Instrument calibration was performed with phantoms containing small known amount of radioactivity. […]
smiles,measurement,value
"CC(C)C[C@H](NC(=O)[C@@H]1CSSC[C@H](NC(=O)[C@H](Cc2c[nH]cn2)NC(=O)[C@H](Cc2c[nH]c3ccccc23)NC(=O)[C@H](CCCCNC(=O)CNC(=O)CCC(C(=O)O)N2CCN(CC(=O)O)CCN(CC(=O)O)CC2)NC(=O)CNC(=O)CCC(C(=O)O)N2CCN(CC(=O)O)CCN(CC(=O)O)CC2)C(=O)N[C@@H]([C@@H](C)O)C(=O)N[C@@H]([C@@H](C)O)C(=O)N[C@@H](CCCCNC(=O)CCC(C(=O)O)N2CCN(CC(=O)O)CCN(CC(=O)O)CC2)C(=O)N[C@@H](Cc2ccccc2)C(=O)N2CCC[C@H]2C(=O)N[C@@H](Cc2c[nH]cn2)C(=O)N[C@@H](Cc2c[nH]cn2)C(=O)N[C@@H](Cc2ccc(O)cc2)C(=O)N1)C(=O)N[C@@H](Cc1ccc(O)cc1)C(=O)N[C@@H](Cc1ccc(-c2ccccc2)cc1)C(N)=O (single isomer, unassigned) [CBP8]","Mean PET activity in heart and muscle, BM-treated vs sham, in words",not significantly different
